The test concerns the target Mtb-HigA1^ΔC42 (Mtb-HigA1 deleted of the last 42 residues) (Mycobacterium tuberculosis). The experiment in a line: SEC-MALS; Superdex 200 Increase 5/150; 20 mM MES, 200 mM NaCl, pH 6.5; 15 °C; Mtb-SecB^TA 49.1 µM, Mtb-SecB^TA/HigA1 6.5 µM, Mtb-HigA1^ΔC42 100 µM. A general note: SEC sorts molecules by how far they enter the pores of the column.

In the case of “Mtb-HigA1^ΔC42 (Mtb-HigA1 deleted of the last 42 residues) (domain or fragment)”, the stoichiometry N (commonly the number of molecules, sites or subunits per partner or assembly) was 2.

Source of the values: PMC6377645, “Structural insights into chaperone addiction of toxin-antitoxin systems” (Nature Communications, 2019).
